Target: ERα-LBD (ligand binding domain of estrogen receptor α)
Experiment: other fluorescence titration; quenching of the endogenous fluorescence of ERα-LBD (0.2 μm, 600 μL) by microaddition of CTX solution; excitation 295 nm, slits 10 nm, 25°C

“chlorotoxin (CTX), recombinant, cut from GST-CTX (from UniProt P45639 1-36) (peptide)” was tested. Which Ka did it give?
The Ka was 3e+07 M⁻¹.
